Source: patent publication US20040072238A1 (Kyowa Kirin, published 2004)

Experiments:
human IGF-II (Peprotech) = target: T1, human IGF-II (Peprotech) (human, UniProt P01344 25-91); test: far-Western: COS-1 cell lysate on PVDF membrane, probed with 2 µg/ml human IGF-II, detected with anti-human IGF-II monoclonal antibody
T1 construct: Bought reagent; also called IGF-2
Procedure: (§1) To investigate the binding affinity of the proteins encoded by C-hsi13412 and C-kaia397 to IGF, analysis by far-Western (Molecular Cloning—A Laboratory Manual, Third Edition, Cold Spring Harbor Laboratory; Protein Experiment Protocol 1, Shujunsha) was carried out using the cell lysates of COS-1/C-hsi13412 cell line, COS-1/C-kaia397, and, as a control, COS-1/mock cell line obtained in Example 8.
(§2) A 5 μl aliquot of the cell lysates of COS-1/mock cell line, COS-1/C-hsi13412 cell line, and COS-1/C-kaia397 cell line was placed into each lane, and according to Example 14, SDS-PAGE was carried out, transferred to a PVDF membrane, and then blocked. Subsequently, 2 μg/ml human IGF-I (Peprotech), 2 μg/ml human IGF-II (Peprotech), or 2 μg/ml of human insulin (Sigma) diluted with the blocking solution was enclosed with the membrane, and was allowed to react at room temperature overnight. Next, anti-human IGF-I monoclonal antibody (Upstate Biotechnology), anti-human IGF-II monoclonal antibody (Upstate Biotechnology), or anti-human insulin polyclonal antibody (Santa Cruz) were added to each of the membranes to a concentration of 2 μg/ml, and was left standing at room temperature for 1 hour. After the membrane was washed well with Tween-TBS, detection was carried out using peroxiase-labeled rabbit anti-mouse immunoglobulin (DAKO) diluted 2,000 times as the secondary antibody.

human IGF-I (Peprotech) = target: T2, human IGF-I (Peprotech) (human, UniProt P05019 49-118); test: far-Western: COS-1 cell lysate on PVDF membrane, probed with 2 µg/ml human IGF-I, detected with anti-human IGF-I monoclonal antibody
T2 construct: Bought reagent; also called IGF-1
Procedure: as §1, §2

human insulin (Sigma) = target: T3, human insulin (Sigma) (human, UniProt P01308 25-54; P01308 90-110); test: far-Western: COS-1 cell lysate on PVDF membrane, probed with human insulin, detected with anti-human insulin polyclonal antibody
T3 construct: Bought reagent
Procedure: as §1, §2

T3 sequence (P01308 25-54 limits assumed, chain 1 of 2): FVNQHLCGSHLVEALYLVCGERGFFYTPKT
T3 sequence (P01308 90-110 limits assumed, chain 2 of 2): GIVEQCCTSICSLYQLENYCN
T1 sequence (P01344 25-91 limits assumed): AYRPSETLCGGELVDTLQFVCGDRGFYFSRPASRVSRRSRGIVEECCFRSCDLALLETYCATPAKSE
T2 sequence (P05019 49-118 limits assumed): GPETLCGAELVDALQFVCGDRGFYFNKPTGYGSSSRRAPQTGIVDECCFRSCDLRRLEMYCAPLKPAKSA

B1: protein encoded by C-kaia397 with FLAG marker peptide at the C-terminus, expressed in COS-1 cells (COS-1/C-kaia397 cell line) (other, not shown: small tags and cut ends)
chain: RPSPGPDYLRRGWMRLLAEGEGCAPCRPEECAAPRGCLAGRVRDAGGCCWECANLEGQLCDLDPSAHFYGHCGEQLECRLDTGGDLSRGEVPEPLCACRSQSPLCGSDGHTYSQICRLQEAARARPDANLTVAHPGPCESDWMPLLGHAILRPPAFTPRAPDRVTSI
notes: Tested as COS-1 cell lysate or culture supernatant, not purified
B1: binds (human IGF-II (Peprotech)); binds (human IGF-I (Peprotech)); no binding (tested: 2 µg/ml) (human insulin (Sigma)).
